Source: paper PMC5562331, “The transcriptional regulator SsrB is involved in a molecular switch controlling virulence lifestyles of Salmonella”

B1: hilD -37+6 (dsDNA)
DNA 1: GATCCGCATTTACAACTCAGATTTTTTCAGTAGGATACCAGTAAGGA
DNA 2: AGCTTCCTTACTGGTATCCTACTGAAAAAATCTGAGTTGTAAATGCG
B2: hilA -35+6 (dsDNA)
DNA 1: GATCCGCATTTACACCCCAAAAAAATGCAGTAAGATAGCTACAAA
DNA 2: AGCTTTTGTAGCTATCTTACTGCATTTTTTTGGGGTGTAAATGCG

Target: 6H-SsrBc (Salmonella enterica serovar Typhimurium, UniProt Q7CQM5 138-212)
Test: EMSA; 0-2 uM protein
Details: protein: recombinant; 5' overhang 4 nt at both ends

6H-SsrBc, sequence (Q7CQM5 138-212): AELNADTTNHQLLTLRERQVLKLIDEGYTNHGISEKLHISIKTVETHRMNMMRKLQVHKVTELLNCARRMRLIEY

| Binder | binding result |
| --- | --- |
| B1 | binds |
| B2 | no binding |
